The values that follow come from patent US20210130436A1 (published 2021).

T1: CD96 (UniProt P40200 22-585, limits assumed)
T1 construct: whole, on cells
T1 sequence (looked up): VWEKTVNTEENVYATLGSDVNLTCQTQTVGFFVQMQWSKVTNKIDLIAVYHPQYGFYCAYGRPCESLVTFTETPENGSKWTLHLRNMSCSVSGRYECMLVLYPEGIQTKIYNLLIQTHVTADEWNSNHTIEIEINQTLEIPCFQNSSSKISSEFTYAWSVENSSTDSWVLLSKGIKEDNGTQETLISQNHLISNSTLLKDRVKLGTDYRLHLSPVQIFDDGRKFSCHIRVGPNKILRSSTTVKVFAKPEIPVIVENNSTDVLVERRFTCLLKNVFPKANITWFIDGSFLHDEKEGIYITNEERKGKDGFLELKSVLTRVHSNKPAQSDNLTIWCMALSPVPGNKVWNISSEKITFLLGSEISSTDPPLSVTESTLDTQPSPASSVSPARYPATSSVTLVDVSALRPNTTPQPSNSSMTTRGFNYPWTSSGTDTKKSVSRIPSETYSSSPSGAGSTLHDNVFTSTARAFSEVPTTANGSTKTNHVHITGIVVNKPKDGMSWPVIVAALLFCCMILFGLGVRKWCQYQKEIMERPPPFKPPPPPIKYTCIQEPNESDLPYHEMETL

T2: CD226 (UniProt Q15762 19-336)
T2 construct: whole, on cells
T2 sequence (looked up): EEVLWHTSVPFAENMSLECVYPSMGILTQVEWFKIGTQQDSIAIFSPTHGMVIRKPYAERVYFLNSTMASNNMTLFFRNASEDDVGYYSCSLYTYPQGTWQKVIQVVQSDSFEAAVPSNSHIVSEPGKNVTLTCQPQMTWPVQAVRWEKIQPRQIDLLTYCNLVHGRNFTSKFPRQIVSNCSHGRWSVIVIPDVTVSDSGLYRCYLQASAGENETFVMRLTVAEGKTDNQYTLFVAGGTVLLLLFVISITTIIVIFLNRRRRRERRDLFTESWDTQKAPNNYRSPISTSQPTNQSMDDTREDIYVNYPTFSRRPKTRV

B1: CD155 S52L/L104E variant IgV-Fc fusion (Fc fusion, not shown: a dimerising Fc or GST)
chain: WPPPGTGDVVVQAPTQVPGFLGDSVTLPCYLQVPNMEVTHVSQLTWARHGELGSMAVFHQTQGPSYSESKRLEFVAARLGAELRNASLRMFGLRVEDEGNYTCEFVTFPQGSRSVDIWLRVL
B2: CD155 T45Q/S52R/G111R variant IgV-Fc fusion (Fc fusion, not shown: a dimerising Fc or GST)
chain: B1 chain with T45Q, L52R, E104L, G111R
B3: CD155 T45Q/S52Q variant IgV-Fc fusion (Fc fusion, not shown: a dimerising Fc or GST)
chain: B1 chain with T45Q, L52Q, E104L
B4: variant CD80 IgV-Fc E35D/M47V/V68M/L85M (Fc fusion, not shown: small tags and cut ends; a dimerising Fc or GST)
chain: VIHVTKEVKEVATLSCGHNVSVEELAQTRIYWQKDKKMVLTMMSGDVNIWPEYKNRTIFDITNNLSIMILALRPSDEGTYECVVMKYEKDAFKREHLAEVTLSVKAD
B5: variant CD80 IgV-Fc E35D/D46E/M47L/V68M/T79M/L85M (Fc fusion, not shown: small tags and cut ends; a dimerising Fc or GST)
chain: B4 chain with D46E, V47L, T79M
B6: CD80 IgV-Fc T13R/Q27L/Q33L/E35D/T41S/M47V/N48K/V68M/L85M (Fc fusion, not shown: a dimerising Fc or GST)
chain: B4 chain with T13R, Q27L, Q33L, T41S, N48K
B7: CD80 IgV-Fc T13R/Q33R/E35D/M38I/M47L/V68M/E95V/L97Q (Fc fusion, not shown: a dimerising Fc or GST)
chain: B4 chain with T13R, Q33R, M38I, V47L, M85L, E95V, L97Q
B8: CD80 IgV-Fc T13R/Q33L/E35D/M47L/V68M/L85M (Fc fusion, not shown: a dimerising Fc or GST)
chain: B4 chain with T13R, Q33L, V47L
B9: CD80 IgV-Fc T13R/Q33R/E35D/M38I/M47L/V68M/L85M (Fc fusion, not shown: a dimerising Fc or GST)
chain: B4 chain with T13R, Q33R, M38I, V47L
B10: CD80 IgV-Fc T13R/Q33R/E35D/M47L/V68M (Fc fusion, not shown: a dimerising Fc or GST)
chain: B4 chain with T13R, Q33R, V47L, M85L
B11: CD80 IgV-Fc T13R/Q33L/E35D/M47V/T62S/V68M/L85M (Fc fusion, not shown: a dimerising Fc or GST)
chain: B4 chain with T13R, Q33L, T62S
B12: CD80 IgV-Fc T13R/Q33R/E35D/M47L/V68M/L85M (Fc fusion, not shown: a dimerising Fc or GST)
chain: B4 chain with T13R, Q33R, V47L
B13: CD80 IgV-Fc T13R/Q33R/E35D/M38I/M47L/V68M (Fc fusion, not shown: a dimerising Fc or GST)
chain: B4 chain with T13R, Q33R, M38I, V47L, M85L
B14: CD80 E35D/D46V/M47L/V68M/L85Q/E88D IgV-Fc, GS(G4S)3 linker (Fc fusion, not shown: a dimerising Fc or GST)
chain: VIHVTKEVKEVATLSCGHNVSVEELAQTRIYWQKDKKMVLTMMSGVLNIWPEYKNRTIFDITNNLSIMILALRPSDEGTYECVVQKYDKDAFKREHLAEVTLSVKADGSGGGGSGGGGSGGGGS
B15: CD80 ECD-Fc (inert) with GSG4S linker, Example 16 (Fc fusion)
chain: VIHVTKEVKEVATLSCGHNVSVEELAQTRIYWQKEKKMVLTMMSGDMNIWPEYKNRTIFDITNNLSIVILALRPSDEGTYECVVLKYEKDAFKREHLAEVTLSVKADFPTPSISDFEIPTSNIRRIICSTSGGFPEPHLSWLENGEELNAINTTVSQDPETELYAVSSKLDFNMTTNHSFMCLIKYGHLRVNQTFNWNTTKQEHFPDNGSGGGGSEPKSSDKTHTCPPCPAPEAEGAPSVFLFPPKPKDTLMISRTPEVTCVVVDVSHEDPEVKFNWYVDGVEVHNAKTKPREEQYNSTYRVVSVLTVLHQDWLNGKEYKCKVSNKALPAPIEKTISKAKGQPREPQVYTLPPSREEMTKNQVSLTCLVKGFYPSDIAVEWESNGQPENNYKTTPPVLDSDGSFFLYSKLTVDKSRWQQGNVFSCSVMHEALHNHYTQKSLSLSPG
B16: variant CD80 IgV-Fc E35D/M38T/D46E/M47V/N48S (Fc fusion, not shown: small tags and cut ends; a dimerising Fc or GST)
chain: B4 chain with M38T, D46E, N48S, M68V, M85L
notes: Fc fusion of the variant IgV

Positions count from the first letter of the chain named. Names and notes keep the numbering of the source.

One experiment addresses T1, CD96. Kind of experiment: flow cytometry on cells expressing CD96, Fc fusion at 100 nM. A general note: In flow cytometry, cells or beads pass a laser one at a time.
Consider B1, for which the “MFI at 100 nM” value came to 1830 MFI.
As for B2, the “MFI at 100 nM” value is 2340 MFI.
Consider B3, for which the “MFI at 100 nM” value was determined as 2450 MFI.

Another experiment deals with T3, human PD-L1 (huPD-L1), full-length, stably expressed on CHO cells (human, UniProt Q9NZQ7 19-290).
T3 construct: whole, on cells
T3 sequence (Q9NZQ7 19-290): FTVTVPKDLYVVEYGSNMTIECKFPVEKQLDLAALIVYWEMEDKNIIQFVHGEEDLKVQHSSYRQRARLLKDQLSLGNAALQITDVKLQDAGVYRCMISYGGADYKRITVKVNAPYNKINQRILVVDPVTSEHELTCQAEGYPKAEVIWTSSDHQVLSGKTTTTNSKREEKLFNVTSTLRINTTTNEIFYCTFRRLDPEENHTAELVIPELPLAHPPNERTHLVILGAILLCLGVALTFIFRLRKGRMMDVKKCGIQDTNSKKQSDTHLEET
Kind of experiment: flow cytometry, CHO cells expressing huPD-L1.
In the case of B4, the “MFI at 33.3 nM” value came out at 9180 MFI.
Same read-out and setting: the same measure for B5: 8640 MFI.

In a further experiment the target is T4, human CTLA-4 (human, UniProt P16410 36-223).
T4 construct: also called huCTLA4
T4 sequence (P16410 36-223): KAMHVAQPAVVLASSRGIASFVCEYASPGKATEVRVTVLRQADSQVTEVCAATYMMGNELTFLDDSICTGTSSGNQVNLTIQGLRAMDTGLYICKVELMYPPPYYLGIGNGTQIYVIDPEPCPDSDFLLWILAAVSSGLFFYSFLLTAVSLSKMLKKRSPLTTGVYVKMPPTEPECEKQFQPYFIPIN
Kind of experiment: flow cytometry, CHO cells stably expressing CTLA4.
Regarding B6, the “Fold change to WT CD80” value worked out at 0.1 fold and the “MFI at 33.3 nM” value was found to be 109 MFI.
Taken in the same sequence, the figures for B7 were 11.8 fold and 20700 MFI.
For the molecule B8, the “Fold change to WT CD80” value was found to be 0.1 fold and the “MFI at 33.3 nM” value came to 141 MFI.
In the case of B9, the “Fold change to WT CD80” value stood at 12.6 fold and the “MFI at 33.3 nM” value stood at 22000 MFI.
Taken in the same sequence, the figures for B10 were 11.8 fold and 20700 MFI.
As for B11, the “Fold change to WT CD80” value was 0.1 fold and the “MFI at 33.3 nM” value worked out at 105 MFI.
Taken in the same sequence, the figures for B12 were 7.7 fold and 13400 MFI.

Another experiment has as its target human CD28 (human, UniProt P10747 19-220). In words: flow cytometry, Jurkat cells (CD28).
As for B6, the “Fold change to WT CD80” value was found to be 0.5 fold and the “MFI at 33.3 nM” value worked out at 14.6 MFI.
With B7, the “Fold change to WT CD80” value is 35.4 fold and the “MFI at 33.3 nM” value was found to be 1110 MFI.
Taken in the same sequence, the figures for B8 were 0.5 fold and 15.7 MFI.
Consider B9, for which the “Fold change to WT CD80” value was determined as 0.5 fold and the “MFI at 33.3 nM” value stood at 14.2 MFI.
For the molecule B10, the “Fold change to WT CD80” value amounted to 0.4 fold and the “MFI at 33.3 nM” value was 14.1 MFI.
In the case of B11, the “Fold change to WT CD80” value is 0.5 fold and the “MFI at 33.3 nM” value amounted to 16 MFI.
Regarding B13, the “Fold change to WT CD80” value is 0.4 fold and the “MFI at 33.3 nM” value came to 13.8 MFI.
Taken in the same sequence, the figures for B12 were 3.6 fold and 112 MFI.

Another experiment addresses T5, human PD-L1 (human, UniProt Q9NZQ7 19-290).
T5 construct: also called huPD-L1; CD274
Kind of experiment: flow cytometry on CHO cells stably expressing PD-L1.
T5 sequence (Q9NZQ7 19-290): as the sequence (Q9NZQ7 19-290) above
Consider B14, for which the “MFI at 33.3 nM” value is 22600 MFI.
As to B15, the “MFI at 33.3 nM” value was determined as 35 MFI.

The target of another experiment is T6, human CD28 (human, UniProt P10747 19-220).
T6 construct: Endogenous CD28 on Jurkat/IL2 reporter cells
In words: flow cytometry on Jurkat cells (CD28).
For B14, the “MFI at 33.3 nM” value worked out at 267 MFI.
Same read-out and setting: the figure for B15 is 37 MFI.

The target of another experiment is T7, CD28, endogenously expressed on Jurkat/IL2 reporter cells (human, UniProt P10747 19-220).
T7 construct: whole, on cells
Kind of experiment: flow cytometry, Jurkat/IL2 reporter cells (endogenous CD28).
For B4, the “MFI at 33.3 nM” value was 201 MFI.
With B5, the “MFI at 33.3 nM” value turned out to be 403 MFI.

For another experiment, the target named is T8, human PD-L1 (human, UniProt Q9NZQ7 19-290).
T8 construct: also called huPD-L1; CD274
In words: flow cytometry, CHO cells stably expressing PD-L1.
T8 sequence (Q9NZQ7 19-290): as above
Take B6: the “Fold change to WT CD80” value was 63.5 fold and the “MFI at 33.3 nM” value is 3270 MFI.
Turning to B7, the “Fold change to WT CD80” value worked out at 372 fold and the “MFI at 33.3 nM” value was determined as 19200 MFI.
In the same order, the values of B8 are 62.7 fold and 3230 MFI.
In the same order, the values of B9 are 21.5 fold and 1110 MFI.
For the molecule B10, the “Fold change to WT CD80” value worked out at 285 fold and the “MFI at 33.3 nM” value was 14700 MFI.
Taken in the same sequence, the figures for B11 were 77 fold and 3970 MFI.
Turning to B13, the “Fold change to WT CD80” value is 87 fold and the “MFI at 33.3 nM” value stood at 4480 MFI.
Turning to B12, the “Fold change to WT CD80” value turned out to be 368 fold and the “MFI at 33.3 nM” value was 18900 MFI.

The target of another experiment is T8, human PD-L1. In words: flow cytometry; PD-L1 MFI over CD28 MFI.
For the molecule B6, the “Ratio of PDL1:CD28” value came out at 224 ratio.
Same read-out and setting: the figure for B7 is 17.2 ratio; for B8 it is 206 ratio; for B9 it is 77.9 ratio.
The same measure, in the same setting: the figure for B10 is 1040 ratio; for B11 it is 248 ratio; for B13 it is 325 ratio.
The same measure, in the same setting: the same measure for B12: 169 ratio.

In another experiment the target is T9, human CTLA4 (huCTLA4), full-length, stably expressed on CHO cells (human, UniProt P16410 36-223).
T9 construct: whole, on cells
T9 sequence (P16410 36-223): as the sequence (P16410 36-223) above
In words: flow cytometry, CHO cells expressing huCTLA4.
B4: the “MFI at 33.3 nM” value was found to be 16000 MFI.

A further experiment addresses T2, CD226. In words: flow cytometry on cells expressing CD226, Fc fusion at 100 nM.
Take B1: the “MFI at 100 nM” value turned out to be 2210 MFI.
Take B2: the “MFI at 100 nM” value stood at 2080 MFI.
With B3, the “MFI at 100 nM” value came to 5790 MFI.

In another experiment the target is T10, human PD-L1, expressed on CHO cells (human, UniProt Q9NZQ7 19-290).
T10 construct: Full-length surface expression construct transduced by lentivirus into CHO cells; also called huPD-L1; CD274
T10 sequence (Q9NZQ7 19-290): as the sequence (Q9NZQ7 19-290) above
Kind of experiment: flow cytometry on CHO cells stably expressing human PD-L1; PE anti-human Fc.
As for B16, the “MFI at 33.3 nM” value was determined as 19400 MFI.
